This is an account of results in publication PMC9579167, “Structure of the proteolytic enzyme PAPP-A with the endogenous inhibitor stanniocalcin-2 reveals its inhibitory mechanism” (Nature Communications, 2022).

Data set [1] addresses T1, 415-residue monomeric C-terminal PAPP-A fragment, PA(T1213-G1627) (human, UniProt Q13219 1213-1627).
T1 construct: PAPP-A, human, residues T1213-G1627 (SCR1-5 and the C domain with LNR3); also called PAPP-A(T1213-G1627); C-terminal fragment of PAPP-A truncated at SCR1; source: 293T cells, transient transfection
T1 sequence (looked up): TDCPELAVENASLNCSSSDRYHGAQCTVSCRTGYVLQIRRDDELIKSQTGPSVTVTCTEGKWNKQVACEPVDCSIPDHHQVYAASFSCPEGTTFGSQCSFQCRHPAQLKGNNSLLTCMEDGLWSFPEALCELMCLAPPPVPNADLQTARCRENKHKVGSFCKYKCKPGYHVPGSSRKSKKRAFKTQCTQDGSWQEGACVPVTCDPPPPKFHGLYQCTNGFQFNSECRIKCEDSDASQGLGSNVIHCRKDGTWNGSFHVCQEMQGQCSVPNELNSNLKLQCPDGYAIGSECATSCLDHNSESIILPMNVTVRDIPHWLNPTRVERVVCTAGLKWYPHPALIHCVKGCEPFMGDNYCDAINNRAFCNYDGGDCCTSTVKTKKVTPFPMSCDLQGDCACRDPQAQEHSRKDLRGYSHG
The experiment in a line: SPR; Biacore 3000, 25 °C; PA_T1213-G1627 amine-coupled to CM5 (7000 RU); IGFBP-4 injected 5 min at 10 µl/min; 10 mM HEPES pH 7.5, 150 mM NaCl, 2 mM CaCl2, 0.05% Tween-20; also with 10 mM EDTA. The conditions noted are these: both partners purified.

Data set [2] deals with the molecule itself. The experiment in a line: cryo-EM structure; single-particle cryo-EM of the purified 2:2 PAPP-A(E563Q)·STC2 complex from co-cultured 293T lines; 0.6 mg/mL; 20 mM HEPES, 100 mM NaCl, 1 mM CaCl2, pH 7.4.

B1: human IGFBP-4 (natural protein, UniProt P22692 22-258, looked up)
chain: DEAIHCPPCSEEKLARCRPPVGCEELVREPGCGCCATCALGLGMPCGVYTPRCGSGLRCYPPRGVEKPLHTLMHGQGVCMELAEIEAIQESLQPSDKDEGDHPNNSFSPCSAHDRRCLQKHFAKIRDRSTSGGKMKVNGAPREDARPVPQGSCQSELHRALERLAASQSRTHEDLYIIPIPNCDRNGNFHPKQCHPALDGQRGKCWCVDRKTGVKLPGGLEPKGELDCHQLADSFRE
notes: also called pBP4mH; source: 293T cells, transient transfection
For the molecule B1, the binding result in data set [1] is listed as “binds”.

B2: active site-inactivated human PAPP-A (E563Q) (enzyme, UniProt Q13219 82-1627, looked up)
chain: EARGATEEPSPPSRALYFSGRGEQLRLRADLELPRDAFTLQVWLRAEGGQRSPAVITGLYDKCSYISRDRGWVVGIHTISDQDNKDPRYFFSLKTDRARQVTTINAHRSYLPGQWVYLAATYDGQFMKLYVNGAQVATSGEQVGGIFSPLTQKCKVLMLGGSALNHNYRGYIEHFSLWKVARTQREILSDMETHGAHTALPQLLLQENWDNVKHAWSPMKDGSSPKVEFSNAHGFLLDTSLEPPLCGQTLCDNTEVIASYNQLSSFRQPKVVRYRVVNLYEDDHKNPTVTREQVDFQHHQLAEAFKQYNISWELDVLEVSNSSLRRRLILANCDISKIGDENCDPECNHTLTGHDGGDCRHLRHPAFVKKQHNGVCDMDCNYERFNFDGGECCDPEITNVTQTCFDPDSPHRAYLDVNELKNILKLDGSTHLNIFFAKSSEEELAGVATWPWDKEALMHLGGIVLNPSFYGMPGHTHTMIHQIGHSLGLYHVFRGISEIQSCSDPCMETEPSFETGDLCNDTNPAPKHKSCGDPGPGNDTCGFHSFFNTPYNNFMSYADDDCTDSFTPNQVARMHCYLDLVYQGWQPSRKPAPVALAPQVLGHTTDSVTLEWFPPIDGHFFERELGSACHLCLEGRILVQYASNASSPMPCSPSGHWSPREAEGHPDVEQPCKSSVRTWSPNSAVNPHTVPPACPEPQGCYLELEFLYPLVPESLTIWVTFVSTDWDSSGAVNDIKLLAVSGKNISLGPQNVFCDVPLTIRLWDVGEEVYGIQIYTLDEHLEIDAAMLTSTADTPLCLQCKPLKYKVVRDPPLQMDVASILHLNRKFVDMDLNLGSVYQYWVITISGTEESEPSPAVTYIHGSGYCGDGIIQKDQGEQCDDMNKINGDGCSLFCRQEVSFNCIDEPSRCYFHDGDGVCEEFEQKTSIKDCGVYTPQGFLDQWASNASVSHQDQQCPGWVIIGQPAASQVCRTKVIDLSEGISQHAWYPCTISYPYSQLAQTTFWLRAYFSQPMVAAAVIVHLVTDGTYYGDQKQETISVQLLDTKDQSHDLGLHVLSCRNNPLIIPVVHDLSQPFYHSQAVRVSFSSPLVAISGVALRSFDNFDPVTLSSCQRGETYSPAEQSCVHFACEKTDCPELAVENASLNCSSSDRYHGAQCTVSCRTGYVLQIRRDDELIKSQTGPSVTVTCTEGKWNKQVACEPVDCSIPDHHQVYAASFSCPEGTTFGSQCSFQCRHPAQLKGNNSLLTCMEDGLWSFPEALCELMCLAPPPVPNADLQTARCRENKHKVGSFCKYKCKPGYHVPGSSRKSKKRAFKTQCTQDGSWQEGACVPVTCDPPPPKFHGLYQCTNGFQFNSECRIKCEDSDASQGLGSNVIHCRKDGTWNGSFHVCQEMQGQCSVPNELNSNLKLQCPDGYAIGSECATSCLDHNSESIILPMNVTVRDIPHWLNPTRVERVVCTAGLKWYPHPALIHCVKGCEPFMGDNYCDAINNRAFCNYDGGDCCTSTVKTKKVTPFPMSCDLQGDCACRDPQAQEHSRKDLRGYSHG
modifications: N-glycans at N390, N402, N429, N480, N601, N725, N825, N1323
notes: numbers count on UniProt Q13219; also called pregnancy-associated plasma protein-A; pappalysin-1
On to B2, for which the binding result in data set [2] was “binds”.
